The nature of this data set: soluble on expression in E. coli; label from the status in PepcDB or PDB records.
Regarding “MGSDKIHHHHHHMIQADEVAERRLMNIPISGGQHGLFERLFAELRPKLHRYCARMTGSVFDGEDVLQETLAKAIEALPGAGPIANPEGWLFRIAHNAALDFLRRRAREQAYSDEDLDMIVDPANPTIDRQAASAGLHTFMRLPVTQRSSVIMMDVLGYSLQEISAMLDTSIPAVKAALHRGRDRLRQIANEPHDRPLPRLGAAERQLLNAYIDRFNARDFDAVRDMLAEEVRLELVAKTRLNGREEVGTYFGNYSRAQDWHLVPGFVENRPAILVHDLNDPATRPAYFIVLAWHDGRLAAIGDFRHARYVADSADMHAL”, the “soluble on expression in E. coli” value is listed as “not soluble”.
The value for “MSDATNNAVLVRNLSPEVTKQTLLDFFSFCGEISAVKIRPSVGEGGSSSSGSPTEAMEALVIFENQSAKKTALVLDSATLKKRKISVMDATEELVSSFKDVREVDLARDSTDVPETATARQERLQGLREEFDRAIKRASDKLSDFNEKHRITEKVQEFGDLTKRKTQEINEQYRLTERAREGWQTVREKTRELDERLHLSESARDGWRSLKASVSKIMQKDRGGEVDKA” was “soluble”; that for “MGHHHHHHHHHHSSGHIDDDDKHMTSLLSQFVSKTDFESYEDFQENFKILVPENFNFAYDVVDVYARDSPEKLAMIWCDDYGNEKIFTFKDLKYYSDKAANFFVKHGIGKGDYVMLTLKSRYDFWYCMLGLHKLGAIAVPATHMLKTRDIVYRIEKAGLKMIVCIAEDDVPEQVDEAHAECGDIPLKKAKVGGDVLEGWIDFRKELEESSPIFERPTGEVSTKNEDICLVYFSSGTAGFPKMVEHDNTYPLGHILTAKYWQNVEDDGLHYTVADSGWGKCVWGKLYGQWIAGCAVFVYDYDRFEAKNMLEKASKYGVTTFCAPPTIYRFLIKEDLSHYNFSTLKYAVVAGEPLNPEVFNRFLEFTGIKLMEGFGQTETVVTIATFPWMEPKPGSIGKPTPGYKIELMDRDGRLCEVGEEGEIVINTMEGKPVGLFVHYGKDPERTEETWHDGYYHTGDMAWMDEDGYLWFVGRADDIIKTSGYKVGPFEVESALIQHPAVLECAITGVPDPVRGQVIKATIVLTKDYTPSDSLKNELQDHVKNVTAPYKYPRIIEFVPELPKTISGKIRRVEIRDKDQSQ” was “soluble”; that for “MIELTITNATITAGDTPLLTNASLHVGSGECVALMGESGSGKTTLAQAILGYLAPGCRWCSGSIDVDGLNPLQLAPRSLRELRKRCAYVDQDPGAALPPGHSVRSIVRSRASLSDAQMLSIFGDFGLGDIDR” was “not soluble”.
The value for “MAISKLFFAYFHKNEKPFKMLCLPLLPLKNVINQMSFESVWRLSKTSRKMYEKIKNVKKSIYKIVIDNRFEYNIIYPRFKTRILRFEKKSDFVSVYNEMGTNKEITASVYLKFSVDFWIELFYKLDKRGPGKLRSSVYKLNHLKKRLKYLNRFDELFSIKHVDLVIDKYKLFGDSISHPLFQKCDYMEIVGNTSYISNNEMNFVLNNFKLKNGLLTNCLIAEDFDVTAMQQIPRLVIFNAQHITVEDLIKMDCETIKLCYHQFKPRHINQLLHHWLSGEMPKLRRFRLNFYCDTTWIGVVLSGIEHSKWDGQRRAKFFRDGIESIDCGNGFDIERNDGLLATFSSLEDSIDFVVWGNISAL” was “not soluble”; that for “MSLSPEDLEATGARLVEELVEYRTRTQVSTAVIGMSGGVDSALTAALFKAAGWHVMGHTLPIEQDPTETDRGIEACAALGIEHRPLDLSGAYEAALAQLGELDPDLLSSDETPARTRRGNLRARLRMMTLYDQAHRLGGLVAGTDNFSELTAGFWTLHGDVGDLAPVQSLLKSWEVPWLARAYRVPEATWRAMPTDGLGIGGGDEAQIGATYLEWDILQFALAEALGDDPGLATRHLAFALRMDADRHAQEVLGTLIARMRATWHKRLNEGHHHHHH” was “not soluble”; that for “MGSDKIHHHHHHMPKNLYNYQEFIRLSHEGKIAFEQIDVPKNASLLTEKIDIDNHIYLVVDGYIALILNDGSQNPKIYSIQGKGTFLNYFTLLDRSNNHFNFKTLSGCSLYKYSKADMEYFLSMFPENFGFQFFIMKNQTTHIYFKSLMASSPASEKLKTTFSNMALLHGVLSDDDTVILPQAIKTSHLLSYSNLSKSCFYKDLQHLKTTNQIEKKEKSWIIHDQELYAMIQNGQTSF” was “not soluble”.
For “MPMVVAKRNARERTRVHTVNQAFLVLKQHLPSLRQFTKRVSKLRILNAAITYIDTLLKLIQSSEAVPQSVISATLGPIVPTPVRAVHKISKPDTVISQPIRPLAPVLPRHETYLPAPIAATCAPDHSLVDYRSTFASSLAPPVPMQMPSVFSPQPTFPYMKSLLDYPTYFYQPSTAPPPPPAPTAPQSHLIVNNQLVPMPSYQCF” the value was “not soluble”; for “MLELLYTALLYLIQPLIWIRLWVRGRKAPAYRKRWGERYGFYRHPLKPGGIMLHSVSVGETLAAIPLVRALRHRYPDLPITVTTMTPTGSERVQSAFGKDVQHVYLPYDLPDALNRFLNKVDPKLVLIMETELWPNLIAALHKRKIPLVIANARLSARSAAGYAKLGKFVRRLLRRITLIAAQNEEDGARFVALGAKNNQVTVTGSLKFDISVTPQLAAKAVTLRRQWAPHRPVWIATSTHEGEESVVIAAHQALLQQFPNLLLILVPRHPERFPDAINLVRQAGLSYITRSSGEVPSTSTQVVVGDTMGELMLLYGIADLAFVGGSLVERGGHNPLEAAAHAIPVLMGPHTFNFKDICARLEQASGLITVTDATTLAKEVSSLLTDADYRSFYGRHAVEVLYQNQGALQRLLQLLEPYLPPKTHLEHHHHHH”, “soluble”.
For the sequence “MSAEQVWQGNFEQLCLFHNLQGRWPGCREGALGRWCTIQRRDYRKGNMSDERKAQLERIGFPLALEHHHHHH”, the “soluble on expression in E. coli” value is “not soluble”.
The value for “MKIWSKEEVVNKLHEIKNKGYLSVPTDMFRTDDGVVGQILERQFGVQENNITLGDLGEFELKGMRNRKAKSNLTLFHKKPVAGQTVIQIFNRFGYVKPSSRNPEVMKKKLFTTIKGGRLNNLGLTLNAKHASEINLYYQDEYLSTWDLNLSKIEKLVLVFAETIGRANSPEEQFHFTKAYMLTEINDITSLINDGVLVMDLCIDQDLSKSKGPHDRGPHLRIPISKLDKLYRNIERLL” was “soluble”; that for “MHALVQLRGEVNMHTDIQDTLEMLNIHHVNHCTLVPETDAYRGMVAKVNDFVAFGEPSQETLETVLATRAEPLEGDADVDDEWVAEHTDYDDISGLAFALLSEETTLREQGLSPTLRLHPPRGGHDGVKHPVKEGGQLGKHDTEGIDDLLEAMR” was “soluble”.
For “AHHHHHHGSDCGKDYCVKDLSLAEEGWKKIDWVSRFMPVLQYIKREFEEKKPFKGVRIAATLHLEMKTAFLLLTLKAGGAEVSAAASNPLSTQDDVVAALAKAGVKVYAIRGESREQYYEFMHKALDIRPNIIIDDGADMISLVHKERQEMLDEIWGGSEETTTGVIRLRAMEKAGILKFPVIAVNDSYMKYLFDNRYGTGQSTWDGIMRATNLLIAGKNVVVVGYGWCGRGIAMRARGLGATVIVVEVDPIKALEARMDGFLVMDMKEAAKIGDIFVTATGNIKCIRREHFELMKDGAIMANAGHFDVEIWKPDLEKLAVEINNPRPNVTEYKLKDGRRLYLLADGRLVNLVAADGHPAEIMDMSFALQAKAAEYIKDNHERLEPKVYILPREIDEMVARIKLESMGIKIEELTEEQKKYLESWEHGT” the value was “soluble”; for “MSLNIPDEGFFTLLTQGMRNRTVETLQRALYHTLRDAILQGTLTARCRLPGSRVMAERLHLSRNTVNAALEQLALEGYLTRSRQGTQVAPLASCRQEAGQMPPVVLPERLQRLPAAMRRDSPTLAFTPGMPAVNYFPLPLWRRLMDNVLREDGSALLGYGEAAGDPLLREAIARHLALSRGIRCDIRQIVITEGALEGVNLCASLLTNPGDSVWLEEPGYLGAWSGFQRAGLRVRGMAVDDEGMCIANGVAEPPRLIFTSPSHQYPCGSIMSAGRRLALVEYARRHGAWIVEDDYDSEFRHSGEPIPAMLGMVPDAPVVYLGTFSKTLFPALRIGFMVMPPALADAAQDAIGALLRGGHRAEQRALASFIEKGHYARHLAAMRRLYRKRQQQLREALAQEITVPCDVLGGGGGMHLTVAMEGVNDRTLAQQARQFQLAPAALSHFYLDPQRARSGLVLGYGNTSASRYLPALRTLNRLIAQHRRAEGHHHHHH”, “not soluble”; for “SNAMKLIAIDLDGTLLNSKHQVSLENENALRQAQRDGIEVVVSTGRAHFDVMSIFEPLGIKTWVISANGAVIHDPEGRLYHHETIDKKRAYDILSWLESENYYYEVFTGSAIYTPQNGRELLDVELDRFRSANPEADLSVLKQAAEVQYSQSGFAYINSFQELFEADEPIDFYNILGFSFFKEKLEAGWKRYEHAEDLTLVSSAEHNFELSSRKASKGQALKRLAKQLNIPLEETAAVGDSLNDKSMLEAAGKGVAMGNAREDIKSIADAVTLTNDEHGVAHMMKHLL”, “soluble”.
Consider “MGSDKIHHHHHHEVPIGFDTDELSFDMSLVLLTGDMQTKASDPNYTYATTEELTIQNCHVAVFDKDGKRIYFKNFYSKDLGEMKTIGNLSGYELQLEGVRTFGKEDKKVSVLVVANANNANNSPFDNLTTYDGVDNSYTAKTIAKGPVTASLLVKIGKSETTLKYNQDNAPVTVSLIQLSAKIEYTGVYKKENGELLEGFSLTKVAGLNASSKITIFNTSAVENGAFSDLAYPTTKPVTFYTYEISDAFKEVILSVQSGVEPKEYPFPANKFIKGNYYRIKGLKSSTEIEWVLENVEDKEVTLDPFE”, for which the “soluble on expression in E. coli” value was “not soluble”.
As to “MMKKRASHHLVICTLIDTLRFRLSSRKAISMNAFNKLVKHSKKISNFNHLSSIVGWDQAAVMPSGGAEARSQAMAELSVHIHGLMTQPQLADWFAEAESETLNIEQQATLREMKRQWQQATVLPEALVEAQSLAGSKCEHAWRSQRKNNDWTGFEKNWAEVVKLSQEEAQIRAEATGKTPYDAMLELYEPGTTTEQLNRVFSDVKTWLPSLIDVVIEKQSSESFIAPKGHYPAESQKALGLDVMKLLQFDFNHGRLDESVHPFCGGVPSDVRITTRYNESEFVQSLMGIVHETGHARYEQGLPKHLAGTPAGEARSMGIHESQSLFFEMQVGRSPAFIAHLAELAGKHFSAMNDPVFRVENIQKLYTRVQKDFIRVDADELTYPAHVILRFEIERDLMNGKIKHTDVPELWDQKMQAYLGLSTKGNDQNGCMQDIHWTDGSFGYFPSYTLGAMYAAQFMAAMKKTVDVDGAIRRGDLSPIFTWLSENIWSKGSLFSTDELVKQATGETLNPEHFKAHLSQRYLK”, the “soluble on expression in E. coli” value was “not soluble”.
Turning to “MASKPGERKTQILHTLAEMLEQPHAARITTSALAARMQVSEAALYRHFASKAQMFEGLIEFIETSIFTVVNQIAVSEPYGMGQARKTVAMLLAFAERNRGITRVLTGDALVTEDNRLQERINHINDRIEASLKQCLRVAVSDGALPADANIAAHASLLTHLVLGRWLRYAQSGWRVAPTTHLEEHLRLALG”, the “soluble on expression in E. coli” value is recorded as “not soluble”.
The value for “MSVLEGINSKALKTGNAGKNLKFKKIGDLPPPSPSPNTFRIYSMRFCPAAQRALIYASVKKIPSEVININLQQKPDWYFTKNYKGQVPTLEHAEGKKLVIESAVIPEYLDDIFPETKILPSDPYEKVQQKLLLERLSDQLTPAFGRVFRAIKNPEELKEKFESILKAFEEAESLLEGAFYSGTSSPGFVDYLIYPSFQRVYWLTFLLEIFPLPSDNFPGPGYPKLSQWFKAITAIPEVAAASQSTENGVGSCKEYMKGLPYFDYGL” was “not soluble”; that for “MDQNIPCQFFSFENTALAVRHRKGHCFPGLVWLSGYQSDMLGSKAMLVDNFAQKNDLSCLRFDYSGHGESEGDFFQGTISRWVKESLAIFETYCEGPQILIGSSMGGWIALKLAMMLAQKNKRLAGMVLVAPAPDFTQTLVEPKLGLEEWKILEEKGYIERPAVGDEEPMPFTKGLIEDGRDNCVMKGCLDIGCPIHILQGMEDDKIPYQHTLTLMNHLPLHDVTLTLVRDADHRFSRPQDLECLETVLSILIDRINAG” was “not soluble”.
